Assay results published in patent publication US20180362652A1 (Biogen, published 2018).
Read-outs that look alike come from different tables or passages of the source.

T1: human BDCA2 (full-length, cell surface) (human, UniProt Q8WTT0 1-213)
T1 construct: also called huBDCA2; surface human BDCA2
T1 sequence: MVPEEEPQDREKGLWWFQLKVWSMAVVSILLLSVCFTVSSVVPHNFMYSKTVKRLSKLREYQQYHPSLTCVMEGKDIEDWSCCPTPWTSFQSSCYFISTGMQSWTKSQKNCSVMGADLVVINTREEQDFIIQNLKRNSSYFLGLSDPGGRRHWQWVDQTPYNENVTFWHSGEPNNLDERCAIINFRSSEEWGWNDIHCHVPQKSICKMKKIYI

T2: monomeric huBDCA2 ectodomain (human, UniProt Q8WTT0 45-213)
T2 construct: Prepared by proteolytic cleavage of the purified muIgG2a Fc-huBDCA2 fusion protein (pEAG2423); also called human BDCA2 ectodomain; human BDCA2 ECD
T2 sequence: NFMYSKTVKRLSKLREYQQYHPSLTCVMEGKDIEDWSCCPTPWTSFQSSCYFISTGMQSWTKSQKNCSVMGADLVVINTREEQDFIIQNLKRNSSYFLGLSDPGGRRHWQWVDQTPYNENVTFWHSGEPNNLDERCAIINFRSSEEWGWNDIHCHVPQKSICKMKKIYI

T3: cynomolgus monkey BDCA2 (full-length, cell surface, E73 SNP form) (cynomolgus monkey, UniProt Q8WTT0 1-213 (human entry))
T3 construct: also called cyno BDCA2; surface cynomolgus monkey BDCA2
T3 chain: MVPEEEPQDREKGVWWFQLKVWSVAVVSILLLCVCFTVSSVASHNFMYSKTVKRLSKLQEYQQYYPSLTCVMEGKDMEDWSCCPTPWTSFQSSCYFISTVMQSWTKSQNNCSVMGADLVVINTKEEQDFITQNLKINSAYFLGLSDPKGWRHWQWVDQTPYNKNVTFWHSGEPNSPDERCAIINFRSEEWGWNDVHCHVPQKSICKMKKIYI


Key:
[1] = molecular target: T1, human BDCA2 (full-length, cell surface); assay: direct binding FACS, conditioned medium on CHO cells co-expressing human BDCA2 and FcεRIγ; column C (midpoint) of the printed 4-P fit, X in ng/ml; A 8.32, B 1, D 102, R^2 0.999
Description: (§1) Conditioned medium was assayed by direct binding FACS on stably transfected DG44 CHO cells co-expressing full-length BDCA2 and FcεRIγ cDNAs (human or cynomolgus monkey), (relevant expression vectors are human BDCA2/FcεRIγ: pEAG2456, cyno BDCA2/FcεRIγ: pEAG2668).

[2] = molecular target: T2, monomeric huBDCA2 ectodomain; assay: Octet, mAb from conditioned medium on anti-human Fc tips, monomeric huBDCA2 in solution
Description: (§2) Backmutation to the unpaired cysteine, i.e., S95C, was constructed by site-directed mutagenesis producing plasmid pYL749. Variants S95T, S95A, and S95V were constructed by site-directed mutagenesis producing plasmids pYL750, pYL751, and pYL752, respectively. The full-length light chain cDNA sequences in the resultant plasmids were confirmed by DNA sequencing. […] Conditioned medium was harvested at 2 days post-transfection. […] Conditioned medium containing the C95 variant mAbs was assayed by Octet for binding to human BDCA2 ectodomain. Antibodies from conditioned medium from transiently transfected cells were bound to anti-human Fc tips, then monomeric huBDCA2 was flowed over the Octet tips, to examine binding and dissociation.

[3] = molecular target: T3, cynomolgus monkey BDCA2 (full-length, …); assay: direct binding FACS, conditioned medium on CHO cells co-expressing cynomolgus BDCA2 and FcεRIγ; column C (midpoint) of the printed 4-P fit, X in ng/ml; A 3.13, B 0.874, D 71.9, R^2 0.998
Description: as §1

[4] = molecular target: T2, monomeric huBDCA2 ectodomain; assay: Octet, mAb from conditioned medium on anti-human Fc tips, monomeric huBDCA2 in solution; remark: listed apart in the source
Description: The monomeric huBDCA2 ectodomain was prepared by proteolytic cleavage from the purified muIgG2a Fc-huBDCA2 fusion protein (relevant plasmid: pEAG2423). Antibodies from conditioned medium from transiently transfected cells were bound to anti-human Fc tips, and then monomeric huBDCA2 was flowed over the Octet tips, to examine binding and dissociation.

[5] = molecular target: T2, monomeric huBDCA2 ectodomain; assay: Octet, monomeric huBDCA2
Description: as §2

[6] = molecular target: T3, cynomolgus monkey BDCA2 (full-length, …); assay: direct binding FACS, conditioned medium on CHO cells co-expressing cynomolgus BDCA2 and FcεRIγ; column C (midpoint) of the printed 4-P fit, X in ng/ml; A 1.62, B 0.79, D 41.8, R^2 1; the fit is extrapolated: the highest point drawn is at about 4000 ng/ml with MFI about 16, no plateau
Description: as §1

[7] = molecular target: T1, human BDCA2 (full-length, cell surface); assay: direct binding FACS, conditioned medium on CHO cells co-expressing human BDCA2 and FcεRIγ; column C (midpoint) of the printed 4-P fit, X in ng/ml; A 3.85, B 0.622, D 97.2, R^2 0.999
Description: as §1

Binder | EC50 [1] [µg/mL] | Kd [2] [nM] | koff [2] [s⁻¹] | kon [2] [M⁻¹ s⁻¹] | EC50 [3] [µg/mL] | Kd [4] [nM] | koff [4] [s⁻¹] | kon [4] [M⁻¹ s⁻¹] | binding result [5] | EC50 [6] [µg/mL] | EC50 [7] [µg/mL]
hu24F4 H4/L1 (C95S) (antibody, V domains shown, Human IgG1/kappa; also called 24F4-H4/L1 (YL740/YL746); 24F4S) VH: DVQLVESGGGLVKPGGSLRLSCAASGFTFSTYTMSWVRQAPGKGLEWVATISPGDSFGYYYPDSVQGRFTISRDNAKNSLYLQMNSLRAEDTAVYYCTRDIYYNYGAWFAYWGQGTLVTVSS VL: DIQLTQSPSSLSASVGDRVTITCKASQSVDYDGDSYMNWYQQKPGKAPKLLIYAASTLESGVPSRFSGSGSGTDFTLTISSLQPEDFATYYCQQSNEDPRTFGQGTKVEIK | 0.2 | 0.548 | 0.000398 | 727000 | 0.21 | 0.744 | 0.000408 | 549000 | – | – | –
hu24F4 H5/L1 C95T (antibody, human IgG1, V domains shown, Heavy chain pYL747 with light chain pYL750; human IgG1/kappa; also called H5/L1 C95T variant) VH: DVQLVQSGGGLVKPGGSLRLSCAASGFTFSTYTMSWVRQAPGKGLEWVATISPGDSFGYYYPDSVQGRFTISRDNAKNSLYLQMNRLRAEDTAVYYCTRDIYYNYGAWFAYWGRGTLVTVSS VL: DIQLTQSPSSLSASVGDRVTITCKASQSVDYDGDSYMNWYQQKPGKAPKLLIYAASTLESGVPSRFSGSGSGTDFTLTISSLQPEDFATYYCQQTNEDPRTFGQGTKVEIK | – | – | – | – | – | – | – | – | binds | – | –
hu24F4 H3/L1 (antibody, V domains shown, Humanized variant, human IgG1/kappa, conditioned medium of 293E cells; also called H3 series of hu24F4) VH: EVQLVESGGGLVKPGGSLRLSCAASGFTFSTYTMSWVRQAPGKGLEWVSTISPGDSFGYYYPDSVQGRFTISRDNAKNSLYLQMNSLRAEDTAVYYCARDIYYNYGAWFAYWGQGTLVTVSS VL: DIQLTQSPSSLSASVGDRVTITCKASQSVDYDGDSYMNWYQQKPGKAPKLLIYAASTLESGVPSRFSGSGSGTDFTLTISSLQPEDFATYYCQQSNEDPRTFGQGTKVEIK | – | – | – | – | – | 13 | 0.00586 | 452000 | – | 7.67 | 0.984
